From the supplement of paper PMC7877785 come the findings set out here.

± gives the uncertainty stated by the source.

The data set in a line: self-splicing fitness, log relative to wild type (ln ratio); higher = more splicing; Tetrahymena group I intron in knt gene, E. coli kanamycin selection, DiMSum; sequences stand for … in CUCUCU…GGAGGGAAAAGUUAUCAGGCAUGCACCUGGUAGCUAGUCUUUAAACCAAUAGAUUGCAUCGGUUUAAAAGGCAAGACCGUCAAAUUGCGGGAAAGGGGUCAACAGCCGUUCAGUACCAAGUCUCAGGGGAAACUUUGAGAUGGCCUUGCAAAGGGUAUGGUAAUAAGCUGACGGACAUGGUCCUAACCACGCAGCCAAGUCCUAAGUCAACAGAUCUUCUGUUGAUAUGGAUGCAGUUCACAGACUAAAUGUCGGUCGGGGAAGAUGUAUUCUUCUCAUAAGAUAUAGUCGGACCUCUCCUUAAUGGGAGCUAGCGGAUGAAGUGAUGCAACACUGGAGCCGCUGGGAACUAAUUUGUAUGCGAAAGUAUAUUGAUUAGUUUUGGAGUACUCGUGGUCG
In outline:
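Library with all eight P1ex-region intron nucleotides randomised, intron inside the knt kanamycin-resistance gene on pET-22b(+), in E. coli BL21(DE3). Cells grew overnight at 37°C or 30°C on LB agar with or without 25 μg/mL kanamycin (plus 100 μg/mL carbenicillin, 50 μM IPTG, 0.2% rhamnose), in six replicate transformations. Pooled colonies were amplicon-sequenced on Illumina HiSeq 2500. DiMSum fitness is the error-weighted combination of wild-type-normalised replicate fold changes, kanamycin versus none.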

On to CAGCAGCAAUAUUACGGAGC, for which the “self-splicing fitness (ln)” value (30 °C) is -3.3 ± 0.33 and the “self-splicing fitness (ln)” value (37 °C) is -2.68 ± 0.39.
Taken in the same sequence, the figures for CAGCAGCAAUAUUACGGCAC were -3.25 ± 0.15 and -0.851 ± 0.17.
In the case of CAGCAGCAAUAUUACGGGAU, the “self-splicing fitness (ln)” value reads like this: (30 °C) -4.61 ± 0.22; (37 °C) -2.35 ± 0.12.
Turning to CAGCAGCAAUAUUACGGGGC, the “self-splicing fitness (ln)” value is -3.66 ± 0.14 (30 °C) and -2.45 ± 0.15 (37 °C).
On to CAGCAGCAAUAUUACGGGUC, for which the “self-splicing fitness (ln)” value reads like this: (30 °C) -2.33 ± 0.14; (37 °C) -1.96 ± 0.19.
Taken in the same sequence, the figures for CAGCAGCAAUAUUACGGUAC were -3.46 ± 0.14 and -2.26 ± 0.14.
As for CAGCAGCAAUAUUACGGUCG, the “self-splicing fitness (ln)” value is 0.264 ± 0.053 (30 °C) and 0.584 ± 0.08 (37 °C).
Taken in the same sequence, the figures for CAGCAGCAAUAUUACGGUGA were -2 ± 0.083 and -0.913 ± 0.086.
Taken in the same sequence, the figures for CAGCAGCAAUAUUACGUGAU were -3.66 ± 0.15 and -1.78 ± 0.14.
Consider CAGCAGCAAUAUUACGUUGA, for which the “self-splicing fitness (ln)” value (30 °C) was -2.82 ± 0.16 and the “self-splicing fitness (ln)” value (37 °C) was -1.93 ± 0.18.
As to CAGCAGCAAUAUUACGUUUG, the “self-splicing fitness (ln)” value by setting is: (30 °C) -3.1 ± 0.16; (37 °C) -2.01 ± 0.16.
On to CAGCAGCAAUAUUACGUUUU, for which the “self-splicing fitness (ln)” value reads like this: (30 °C) -2.86 ± 0.1; (37 °C) -1.15 ± 0.11.
Taken in the same sequence, the figures for CAGGAGCAAUAUUACGAAAG were -1.8 ± 0.17 and -1.11 ± 0.23.
Taken in the same sequence, the figures for CAGGAGCAAUAUUACGAAGU were -4.19 ± 0.28 and -2.39 ± 0.37.
Take CAGGAGCAAUAUUACGAAUU: the “self-splicing fitness (ln)” value by setting is: (30 °C) -3.43 ± 0.35; (37 °C) -2.43 ± 0.3.
Taken in the same sequence, the figures for CAGGAGCAAUAUUACGACAG were -0.986 ± 0.27 and -1.19 ± 0.27.
Take CAGGAGCAAUAUUACGAGCA: the “self-splicing fitness (ln)” value is -2.15 ± 0.33 (30 °C) and -1.53 ± 0.36 (37 °C).
Taken in the same sequence, the figures for CAGGAGCAAUAUUACGAGGG were -3.21 ± 0.24 and -1.97 ± 0.2.
On to CAGGAGCAAUAUUACGCAGU, for which the “self-splicing fitness (ln)” value is, setting by setting: (30 °C) -2 ± 0.31; (37 °C) -1.44 ± 0.29.
On to CAGGAGCAAUAUUACGCCAA, for which, under “30 °C”, the “self-splicing fitness (ln)” value is -2.89 ± 0.37.
Regarding CAGGAGCAAUAUUACGCCCG, the “self-splicing fitness (ln)” value (30 °C) is -2.75 ± 0.42 and the “self-splicing fitness (ln)” value (37 °C) is -0.874 ± 0.37.
Take CAGGAGCAAUAUUACGCCCU: under “37 °C”, the “self-splicing fitness (ln)” value is -1.65 ± 0.32.
Turning to CAGGAGCAAUAUUACGCCUA, the “self-splicing fitness (ln)” value runs as follows: (30 °C) -0.617 ± 0.19; (37 °C) -1.01 ± 0.21.
For the sequence CAGGAGCAAUAUUACGCCUG, the “self-splicing fitness (ln)” value (30 °C) is -3.09 ± 0.29 and the “self-splicing fitness (ln)” value (37 °C) was -1.01 ± 0.22.
Taken in the same sequence, the figures for CAGGAGCAAUAUUACGCGCU were -2.49 ± 0.2 and -2.62 ± 0.41.
For CAGGAGCAAUAUUACGCUCG, the “self-splicing fitness (ln)” value is -3.55 ± 0.34 (30 °C) and -1.37 ± 0.33 (37 °C).
Taken in the same sequence, the figures for CAGGAGCAAUAUUACGGAUU were -3.18 ± 0.23 and -2.52 ± 0.37.
Taken in the same sequence, the figures for CAGGAGCAAUAUUACGGCAA were -4.26 ± 0.32 and -2.84 ± 0.33.
Turning to CAGGAGCAAUAUUACGGCCG, the “self-splicing fitness (ln)” value is -0.398 ± 0.09 (30 °C) and 0.0497 ± 0.12 (37 °C).
In the case of CAGGAGCAAUAUUACGGCUG, the “self-splicing fitness (ln)” value is -2.97 ± 0.18 (30 °C) and -2.37 ± 0.22 (37 °C).
For CAGGAGCAAUAUUACGGGAA, the “self-splicing fitness (ln)” value by setting is: (30 °C) -4.1 ± 0.23; (37 °C) -2.47 ± 0.17.
As to CAGGAGCAAUAUUACGGGAG, the “self-splicing fitness (ln)” value is, setting by setting: (30 °C) -1.92 ± 0.18; (37 °C) -0.745 ± 0.17.
On to CAGGAGCAAUAUUACGGGGC, for which the “self-splicing fitness (ln)” value (30 °C) is -2.17 ± 0.23.
For the sequence CAGGAGCAAUAUUACGGUCC, the “self-splicing fitness (ln)” value runs as follows: (30 °C) -2.86 ± 0.24; (37 °C) -2.86 ± 0.38.
As for CAGGAGCAAUAUUACGGUUG, the “self-splicing fitness (ln)” value is -1.89 ± 0.085 (30 °C) and -0.54 ± 0.12 (37 °C).
Taken in the same sequence, the figures for CAGGAGCAAUAUUACGUGAG were -1.42 ± 0.084 and -0.711 ± 0.098.
As to CAGGAGCAAUAUUACGUGGC, under “37 °C”, the “self-splicing fitness (ln)” value was -1.5 ± 0.38.
For the sequence CAGUAGCAAUAUUACGACUG, the “self-splicing fitness (ln)” value is -4.55 ± 0.26 (30 °C) and -2.84 ± 0.23 (37 °C).
Taken in the same sequence, the figures for CAGUAGCAAUAUUACGAUGA were -1.92 ± 0.24 and 0.175 ± 0.18.
In the case of CAGUAGCAAUAUUACGCCAC, the “self-splicing fitness (ln)” value (30 °C) is -2.54 ± 0.3.
On to CAGUAGCAAUAUUACGCGAG, for which the “self-splicing fitness (ln)” value is -2.01 ± 0.16 (30 °C) and -0.736 ± 0.12 (37 °C).
Taken in the same sequence, the figures for CAGUAGCAAUAUUACGCUAU were -3.57 ± 0.23 and -3.27 ± 0.32.
Taken in the same sequence, the figures for CAGUAGCAAUAUUACGCUUG were -0.882 ± 0.13 and -0.797 ± 0.22.
Taken in the same sequence, the figures for CAGUAGCAAUAUUACGGAAG were -1.9 ± 0.15 and -0.317 ± 0.14.
Turning to CAGUAGCAAUAUUACGGACU, the “self-splicing fitness (ln)” value by setting is: (30 °C) -2.38 ± 0.16; (37 °C) -0.698 ± 0.12.
Taken in the same sequence, the figures for CAGUAGCAAUAUUACGGAUG were -1.04 ± 0.099 and -0.362 ± 0.12.
CAGUAGCAAUAUUACGGCGU: the “self-splicing fitness (ln)” value (30 °C) was -2.25 ± 0.12 and the “self-splicing fitness (ln)” value (37 °C) is -0.753 ± 0.14.
In the case of CAGUAGCAAUAUUACGGGAA, the “self-splicing fitness (ln)” value reads like this: (30 °C) -2.93 ± 0.26; (37 °C) -2.44 ± 0.25.
Taken in the same sequence, the figures for CAGUAGCAAUAUUACGGUAG were -1.21 ± 0.067 and 0.0261 ± 0.098.
Taken in the same sequence, the figures for CAGUAGCAAUAUUACGUAAA were -2.13 ± 0.16 and -1.61 ± 0.24.
Taken in the same sequence, the figures for CAGUAGCAAUAUUACGUCAU were -3.37 ± 0.22 and -2.4 ± 0.26.
Regarding CAGUAGCAAUAUUACGUCUG, the “self-splicing fitness (ln)” value (30 °C) is -3.23 ± 0.11 and the “self-splicing fitness (ln)” value (37 °C) was -2.6 ± 0.13.
CAGUAGCAAUAUUACGUGAA: the “self-splicing fitness (ln)” value was -3.97 ± 0.34 (30 °C) and -2.15 ± 0.22 (37 °C).
CAGUAGCAAUAUUACGUGCC: the “self-splicing fitness (ln)” value by setting is: (30 °C) -3.68 ± 0.35; (37 °C) -1.93 ± 0.27.
For the sequence CAGUAGCAAUAUUACGUUGC, the “self-splicing fitness (ln)” value (30 °C) was -3.47 ± 0.34.
As for CAGUAGCAAUAUUACGUUUU, the “self-splicing fitness (ln)” value (30 °C) is -3.8 ± 0.24 and the “self-splicing fitness (ln)” value (37 °C) is -3.01 ± 0.24.
As for CAUAAGCAAUAUUACGAAUC, the “self-splicing fitness (ln)” value runs as follows: (30 °C) -3.25 ± 0.25; (37 °C) -3.34 ± 0.37.
Consider CAUAAGCAAUAUUACGACGU, for which the “self-splicing fitness (ln)” value reads like this: (30 °C) -2.51 ± 0.14; (37 °C) -1.27 ± 0.15.
For the sequence CAUAAGCAAUAUUACGAGCC, the “self-splicing fitness (ln)” value (30 °C) is -3.21 ± 0.35 and the “self-splicing fitness (ln)” value (37 °C) is -2.41 ± 0.44.
Taken in the same sequence, the figures for CAUAAGCAAUAUUACGAGUC were -3.2 ± 0.43 and -2.68 ± 0.38.
Taken in the same sequence, the figures for CAUAAGCAAUAUUACGCACG were -1.64 ± 0.1 and -0.299 ± 0.13.
Regarding CAUAAGCAAUAUUACGCAGU, the “self-splicing fitness (ln)” value (30 °C) was -3.05 ± 0.23 and the “self-splicing fitness (ln)” value (37 °C) is -0.865 ± 0.13.
CAUAAGCAAUAUUACGCCCG: the “self-splicing fitness (ln)” value was -0.556 ± 0.16 (30 °C) and -0.0931 ± 0.22 (37 °C).
Taken in the same sequence, the figures for CAUAAGCAAUAUUACGCCGU were -3.29 ± 0.36 and -1.15 ± 0.19.
As to CAUAAGCAAUAUUACGCCUG, the “self-splicing fitness (ln)” value is -2.54 ± 0.22 (30 °C) and -1.39 ± 0.17 (37 °C).
Taken in the same sequence, the figures for CAUAAGCAAUAUUACGCGAC were -3.45 ± 0.33 and -3.11 ± 0.4.
For CAUAAGCAAUAUUACGCGAU, the “self-splicing fitness (ln)” value by setting is: (30 °C) -3.46 ± 0.26; (37 °C) -3.08 ± 0.28.
For the sequence CAUAAGCAAUAUUACGCGGG, the “self-splicing fitness (ln)” value is -1.6 ± 0.17 (30 °C) and -2.18 ± 0.25 (37 °C).
Taken in the same sequence, the figures for CAUAAGCAAUAUUACGCUGG were -2.08 ± 0.18 and -2.03 ± 0.17.
Turning to CAUAAGCAAUAUUACGGAAA, the “self-splicing fitness (ln)” value (37 °C) was -0.782 ± 0.37.
The same measure, in the same setting: with CAUAAGCAAUAUUACGGAAC the figure was -2.26 ± 0.22.
In the case of CAUAAGCAAUAUUACGGAAU, the “self-splicing fitness (ln)” value is -4.25 ± 0.23 (30 °C) and -2.43 ± 0.18 (37 °C).
Taken in the same sequence, the figures for CAUAAGCAAUAUUACGGAUA were -3.62 ± 0.19 and -2.87 ± 0.18.
Taken in the same sequence, the figures for CAUAAGCAAUAUUACGGGUA were -3.36 ± 0.21 and -2.64 ± 0.17.
Taken in the same sequence, the figures for CAUAAGCAAUAUUACGGUUG were -2.47 ± 0.094 and -1.59 ± 0.1.
As to CAUAAGCAAUAUUACGUAGU, the “self-splicing fitness (ln)” value reads like this: (30 °C) -3.82 ± 0.28; (37 °C) -0.576 ± 0.17.
Taken in the same sequence, the figures for CAUAAGCAAUAUUACGUCGU were -4.23 ± 0.34 and -1.64 ± 0.12.
